Data set [1] addresses plasma purified human antithrombin III (AT-III), as complex with unfractionated heparin. In words: ratio of K0.5 (lower limit) to Catalyst Biosciences WT FIXa, AT-III/UFH inhibition.
Data set [2] deals with plasma purified human AT-III (antithrombin III). Kind of data set: AT-III/UFH inhibition K0.5, ratio to Catalyst Biosciences WT FIXa.

A value given as a limit tells only on which side of the number the result lay.

Sequence of Factor X, P00742 (P00742 whole entry, looked up): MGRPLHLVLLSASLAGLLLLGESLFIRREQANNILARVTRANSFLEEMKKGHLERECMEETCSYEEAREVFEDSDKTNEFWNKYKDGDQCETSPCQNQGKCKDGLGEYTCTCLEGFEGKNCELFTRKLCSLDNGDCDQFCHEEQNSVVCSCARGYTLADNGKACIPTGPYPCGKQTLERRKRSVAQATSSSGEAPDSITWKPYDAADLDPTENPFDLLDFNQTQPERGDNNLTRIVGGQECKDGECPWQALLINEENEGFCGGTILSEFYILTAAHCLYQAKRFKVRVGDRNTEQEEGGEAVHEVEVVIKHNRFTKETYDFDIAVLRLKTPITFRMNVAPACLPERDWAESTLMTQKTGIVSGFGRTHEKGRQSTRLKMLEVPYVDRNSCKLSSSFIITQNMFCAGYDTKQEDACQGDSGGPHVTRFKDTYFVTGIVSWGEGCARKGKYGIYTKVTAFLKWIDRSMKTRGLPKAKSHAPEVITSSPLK
Sequence of Factor X (FX), P00742 (P00742 whole entry, looked up): as above

B1: FIXa-Y155F/R318Y/R338E/N346D/R403E/E410N (protein)
chain 1: YNSGKLEEFVQGNLERECMEEKCSFEEAREVFENTERTTEFWKQYVDGDQCESNPCLNGGSCKDDINSYECWCPFGFEGKNCELDVTCNIKNGRCEQFCKNSADNKVVCSCTEGYRLAENQKSCEPAVPFPCGRVSVSQTSKLTR
chain 2: VVGGEDAKPGQFPWQVVLNGKVDAFCGGSIVNEKWIVTAAHCVETGVKITVVAGEHNIEETEHTEQKRNVIRIIPHHNYNAAINKYNHDIALLELDEPLVLNSYVTPICIADKEYTNIFLKFGSGYVSGWGRVFHKGYSALVLQYLRVPLVDRATCLESTKFTIYDNMFCAGFHEGGRDSCQGDSGGPHVTEVEGTSFLTGIISWGEECAMKGKYGIYTKVSEYVNWIKNKTKLT
Take B1: in the data set with Factor X, P00742, the “% of WT kcat/KM” value is recorded as 139%; the catalytic constant (kcat) (commonly the maximal rate divided by the concentration of active sites) came out at 6.4 s⁻¹; the kcat/KM – broadly, the second-order rate constant that governs catalysis at low substrate concentration – turned out to be 6.2e+07 M⁻¹ s⁻¹. Besides, in the data set with Factor X (FX), P00742, the KM (usually the concentration of substrate that gives half-maximal velocity) was found to be 0.1 µM and the kcat of FX activation by FIXa (Xase complex with FVIIIa, PC/PS vesicles, Ca2+) came out at 6.4 s⁻¹. Further, the K0.5-mut/K0.5-wt in data set [1] stood at 517. For the same protein, the K0.5-mut/K0.5-wt in data set [2] is > 517.

These data come from patent US20210238260.
